Laboratory results from publication PMC10112965, “Characterization of the nuclear import of the human CHD4–NuRD complex” (Journal of Cell Science, 2023).

Molecular target: the molecule itself
Experiment: native gel or EMSA; 1 µg protein on a 4–16% NativePAGE gel with G-250 additive, room temperature, 150 V for 2 h, stained with Coomassie and silver

B1: CHD4-C-Flag Δ aa 217–360 (enzyme, human, UniProt Q14839 1-1912, looked up)
chain: MASGLGSPSPCSAGSEEEDMDALLNNSLPPPHPENEEDPEEDLSETETPKLKKKKKPKKPRDPKIPKSKRQKKERMLLCRQLGDSSGEGPEFVEEEEEVALRSDSEGSDYTPGKKKKKKLGPKKEKKSKSKRKEEEEEEDDDDDSKEPKSSAQLLEDWGMEDIDHVFSEEDYRTLTNYKAFSQFVRPLIAAKNPKIAVSKMMMVLGAKWREFSTNNAVDGYETDHQDYCEVCQQGGEIILCDTCPRAYHMVCLDPDMEKAPEGKWSCPHCEKEGIQWEAKEDNSEGEEILEEVGGDLEEEDDHHMEFCRVCKDGGELLCCDTCPSSYHIHCLNPPLPEIPNGEWLCPRCTCPALKGKVQKILIWKWGQPPSPTPVPRPPDADPNTPSPKPLEGRPERQFFVKWQGMSYWHCSWVSELQLELHCQVMFRNYQRKNDMDEPPSGDFGGDEEKSRKRKNKDPKFAEMEERFYRYGIKPEWMMIHRILNHSVDKKGHVHYLIKWRDLPYDQASWESEDVEIQDYDLFKQSYWNHRELMRGEEGRPGKKLKKVKLRKLERPPETPTVDPTVKYERQPEYLDATGGTLHPYQMEGLNWLRFSWAQGTDTILADEMGLGKTVQTAVFLYSLYKEGHSKGPFLVSAPLSTIINWEREFEMWAPDMYVVTYVGDKDSRAIIRENEFSFEDNAIRGGKKASRMKKEASVKFHVLLTSYELITIDMAILGSIDWACLIVDEAHRLKNNQSKFFRVLNGYSLQHKLLLTGTPLQNNLEELFHLLNFLTPERFHNLEGFLEEFADIAKEDQIKKLHDMLGPHMLRRLKADVFKNMPSKTELIVRVELSPMQKKYYKYILTRNFEALNARGGGNQVSLLNVVMDLKKCCNHPYLFPVAAMEAPKMPNGMYDGSALIRASGKLLLLQKMLKNLKEGGHRVLIFSQMTKMLDLLEDFLEHEGYKYERIDGGITGNMRQEAIDRFNAPGAQQFCFLLSTRAGGLGINLATADTVIIYDSDWNPHNDIQAFSRAHRIGQNKKVMIYRFVTRASVEERITQVAKKKMMLTHLVVRPGLGSKTGSMSKQELDDILKFGTEELFKDEATDGGGDNKEGEDSSVIHYDDKAIERLLDRNQDETEDTELQGMNEYLSSFKVAQYVVREEEMGEEEEVEREIIKQEESVDPDYWEKLLRHHYEQQQEDLARNLGKGKRIRKQVNYNDGSQEDRDWQDDQSDNQSDYSVASEEGDEDFDERSEAPRRPSRKGLRNDKDKPLPPLLARVGGNIEVLGFNARQRKAFLNAIMRYGMPPQDAFTTQWLVRDLRGKSEKEFKAYVSLFMRHLCEPGADGAETFADGVPREGLSRQHVLTRIGVMSLIRKKVQEFEHVNGRWSMPELAEVEENKKMSQPGSPSPKTPTPSTPGDTQPNTPAPVPPAEDGIKIEENSLKEEESIEGEKEVKSTAPETAIECTQAPAPASEDEKVVVEPPEGEEKVEKAEVKERTEEPMETEPKGAADVEKVEEKSAIDLTPIVVEDKEEKKEEEEKKEVMLQNGETPKDLNDEKQKKNIKQRFMFNIADGGFTELHSLWQNEERAATVTKKTYEIWHRRHDYWLLAGIINHGYARWQDIQNDPRYAILNEPFKGEMNRGNFLEIKNKFLARRFKLLEQALVIEEQLRRAAYLNMSEDPSHPSMALNTRFAEVECLAESHQHLSKESMAGNKPANAVLHKVLKQLEELLSDMKADVTRLPATIARIPPVAVRLQMSERNILSRLANRAPEPTPQQVAQQQ
notes: not shown: Flag, C-terminal, kept
  stoichiometry N: ≥ 3

B2: CHD4-C-Flag, C-terminal Flag-tagged recombinant human CHD4 wild-type (enzyme, UniProt Q14839 1-1912, looked up)
chain: MASGLGSPSPCSAGSEEEDMDALLNNSLPPPHPENEEDPEEDLSETETPKLKKKKKPKKPRDPKIPKSKRQKKERMLLCRQLGDSSGEGPEFVEEEEEVALRSDSEGSDYTPGKKKKKKLGPKKEKKSKSKRKEEEEEEDDDDDSKEPKSSAQLLEDWGMEDIDHVFSEEDYRTLTNYKAFSQFVRPLIAAKNPKIAVSKMMMVLGAKWREFSTNNPFKGSSGASVAAAAAAAVAVVESMVTATEVAPPPPPVEVPIRKAKTKEGKGPNARRKPKGSPRVPDAKKPKPKKVAPLKIKLGGFGSKRKRSSSEDDDLDVESDFDDASINSYSVSDGSTSRSSRSRKKLRTTKKKKKGEEEVTAVDGYETDHQDYCEVCQQGGEIILCDTCPRAYHMVCLDPDMEKAPEGKWSCPHCEKEGIQWEAKEDNSEGEEILEEVGGDLEEEDDHHMEFCRVCKDGGELLCCDTCPSSYHIHCLNPPLPEIPNGEWLCPRCTCPALKGKVQKILIWKWGQPPSPTPVPRPPDADPNTPSPKPLEGRPERQFFVKWQGMSYWHCSWVSELQLELHCQVMFRNYQRKNDMDEPPSGDFGGDEEKSRKRKNKDPKFAEMEERFYRYGIKPEWMMIHRILNHSVDKKGHVHYLIKWRDLPYDQASWESEDVEIQDYDLFKQSYWNHRELMRGEEGRPGKKLKKVKLRKLERPPETPTVDPTVKYERQPEYLDATGGTLHPYQMEGLNWLRFSWAQGTDTILADEMGLGKTVQTAVFLYSLYKEGHSKGPFLVSAPLSTIINWEREFEMWAPDMYVVTYVGDKDSRAIIRENEFSFEDNAIRGGKKASRMKKEASVKFHVLLTSYELITIDMAILGSIDWACLIVDEAHRLKNNQSKFFRVLNGYSLQHKLLLTGTPLQNNLEELFHLLNFLTPERFHNLEGFLEEFADIAKEDQIKKLHDMLGPHMLRRLKADVFKNMPSKTELIVRVELSPMQKKYYKYILTRNFEALNARGGGNQVSLLNVVMDLKKCCNHPYLFPVAAMEAPKMPNGMYDGSALIRASGKLLLLQKMLKNLKEGGHRVLIFSQMTKMLDLLEDFLEHEGYKYERIDGGITGNMRQEAIDRFNAPGAQQFCFLLSTRAGGLGINLATADTVIIYDSDWNPHNDIQAFSRAHRIGQNKKVMIYRFVTRASVEERITQVAKKKMMLTHLVVRPGLGSKTGSMSKQELDDILKFGTEELFKDEATDGGGDNKEGEDSSVIHYDDKAIERLLDRNQDETEDTELQGMNEYLSSFKVAQYVVREEEMGEEEEVEREIIKQEESVDPDYWEKLLRHHYEQQQEDLARNLGKGKRIRKQVNYNDGSQEDRDWQDDQSDNQSDYSVASEEGDEDFDERSEAPRRPSRKGLRNDKDKPLPPLLARVGGNIEVLGFNARQRKAFLNAIMRYGMPPQDAFTTQWLVRDLRGKSEKEFKAYVSLFMRHLCEPGADGAETFADGVPREGLSRQHVLTRIGVMSLIRKKVQEFEHVNGRWSMPELAEVEENKKMSQPGSPSPKTPTPSTPGDTQPNTPAPVPPAEDGIKIEENSLKEEESIEGEKEVKSTAPETAIECTQAPAPASEDEKVVVEPPEGEEKVEKAEVKERTEEPMETEPKGAADVEKVEEKSAIDLTPIVVEDKEEKKEEEEKKEVMLQNGETPKDLNDEKQKKNIKQRFMFNIADGGFTELHSLWQNEERAATVTKKTYEIWHRRHDYWLLAGIINHGYARWQDIQNDPRYAILNEPFKGEMNRGNFLEIKNKFLARRFKLLEQALVIEEQLRRAAYLNMSEDPSHPSMALNTRFAEVECLAESHQHLSKESMAGNKPANAVLHKVLKQLEELLSDMKADVTRLPATIARIPPVAVRLQMSERNILSRLANRAPEPTPQQVAQQQ
notes: human CHD4, chromatin remodeling ATPase of NuRD, UniProt Q14839, 1912 aa; Construct (pDFB6 C-Flag) is described in Hoffmeister et al., 2017; also called hCHD4 wild-type; C-Flag hCHD4; not shown: Flag, C-terminal, kept
  stoichiometry N: ≥ 3
